According to patent US6479638:

Experiments:
[1] = molecular target: DNAX Leukocyte Associated Immunoglobulin-like Receptor (DLAIR-1) (human) (UniProt Q6GTX8); test: flow cytometry (FACScan) on Peer T cell tumor cells, PE goat-anti-mouse-IgG second step
[2] = molecular target: DNAX Leukocyte Associated Immunoglobulin-like Receptor (DLAIR-1) (human) (UniProt Q6GTX8); test: flow cytometry (FACScan) on Jurkat T cell tumor cells, PE goat-anti-mouse-IgG second step
[3] = molecular target: DNAX Leukocyte Associated Immunoglobulin-like Receptor (DLAIR-1) (human) (UniProt Q6GTX8); test: flow cytometry (FACScan) on U937 myeloid tumor cells, PE goat-anti-mouse-IgG second step
[4] = molecular target: DNAX Leukocyte Associated Immunoglobulin-like Receptor (DLAIR-1) (human) (UniProt Q6GTX8); test: flow cytometry (FACScan) on HL60 promyeloid tumor cells, PE goat-anti-mouse-IgG second step
[5] = molecular target: DNAX Leukocyte Associated Immunoglobulin-like Receptor (DLAIR-1) (human) (UniProt Q6GTX8); test: flow cytometry (FACScan) on CEM T cell tumor cells, PE goat-anti-mouse-IgG second step
[6] = molecular target: DNAX Leukocyte Associated Immunoglobulin-like Receptor (DLAIR-1) (human) (UniProt Q6GTX8); test: flow cytometry (FACScan) on HUT78 T cell tumor cells, PE goat-anti-mouse-IgG second step
[7] = molecular target: DNAX Leukocyte Associated Immunoglobulin-like Receptor (DLAIR-1) (human) (UniProt Q6GTX8); test: flow cytometry (FACScan) on Molt4 T cell tumor cells, PE goat-anti-mouse-IgG second step

Row | Substance | mean fluorescence intensity [1] | mean fluorescence intensity [2] | mean fluorescence intensity [3] | mean fluorescence intensity [4] | mean fluorescence intensity [5] | mean fluorescence intensity [6] | mean fluorescence intensity [7]
1 | DX26 monoclonal antibody | 29.1 | 47.1 | 49.5 | 46.9 | 92.7 | 25.8 | 30.7
2 | control IgG1 (antibody) | < 5 | < 5 | < 5 | < 5 | < 5 | – | < 5
